# B1: EGF: Epidermal Growth Factor, growth factor supplement (protein, UniProt P01133 23-1207, looked up)
# Pro-epidermal growth factor: PQHWSCPEGTLAGNGNSTCVGPAPFLIFSHGNSIFRIDTEGTNYEQLVVDAGVSVIMDFHYNEKRIYWVDLERQLLQRVFLNGSRQERVCNIEKNVSGMAINWINEEVIWSNQQEGIITVTDMKGNNSHILLSALKYPANVAVDPVERFIFWSSEVAGSLYRADLDGVGVKALLETSEKITAVSLDVLDKRLFWIQYNREGSNSLICSCDYDGGSVHISKHPTQHNLFAMSLFGDRIFYSTWKMKTIWIANKHTGKDMVRINLHSSFVPLGELKVVHPLAQPKAEDDTWEPEQKLCKLRKGNCSSTVCGQDLQSHLCMCAEGYALSRDRKYCEDVNECAFWNHGCTLGCKNTPGSYYCTCPVGFVLLPDGKRCHQLVSCPRNVSECSHDCVLTSEGPLCFCPEGSVLERDGKTCSGCSSPDNGGCSQLCVPLSPVSWECDCFPGYDLQLDEKSCAASGPQPFLLFANSQDIRHMHFDGTDYGTLLSQQMGMVYALDHDPVENKIYFAHTALKWIERANMDGSQRERLIEEGVDVPEGLAVDWIGRRFYWTDRGKSLIGRSDLNGKRSKIITKENISQPRGIAVHPMAKRLFWTDTGINPRIESSSLQGLGRLVIASSDLIWPSGITIDFLTDKLYWCDAKQSVIEMANLDGSKRRRLTQNDVGHPFAVAVFEDYVWFSDWAMPSVMRVNKRTGKDRVRLQGSMLKPSSLVVVHPLAKPGADPCLYQNGGCEHICKKRLGTAWCSCREGFMKASDGKTCLALDGHQLLAGGEVDLKNQVTPLDILSKTRVSEDNITESQHMLVAEIMVSDQDDCAPVGCSMYARCISEGEDATCQCLKGFAGDGKLCSDIDECEMGVPVCPPASSKCINTEGGYVCRCSEGYQGDGIHCLDIDECQLGEHSCGENASCTNTEGGYTCMCAGRLSEPGLICPDSTPPPHLREDDHHYSVRNSDSECPLSHDGYCLHDGVCMYIEALDKYACNCVVGYIGERCQYRDLKWWELRHAGHGQQQKVIVVAVCVVVLVMLLLLSLWGAHYYRTQKLLSKNPKNPYEESSRDVRSRRPADTEDGMSSCPQPWFVVIKEHQDLKNGGQPVAGEDGQAADGSMQPTSWRQEPQLCGMGTEQGCWIPVSSDKGSCPQVMERSFHMPSYGTQTLEGGVEKPHSLLSANPLWQQRALDPPHQMELTQ
# modifications: Pro-epidermal growth factor
# notes: Epidermal Growth Factor, growth factor supplement
# Tested on: ARPE-19 cells
# Assay: Screening of individual supplements on ARPE-19 cell growth, 96-well plate, Hoechst nuclear stain
# Type: cell-based, human
# Settings: components with p-value of <0.05; DMEM/F12 2% FBS, days 2-8 post plant, FIG. 1
molecule,measurement,value
B1,effect on cell growth,positive effect on cell growth

# — patent US20220090005A1, “Supplemented Serum-Containing Culture Medium for Enhanced Arpe-19 Growth and Human Cytomegalovirus Vaccine Production” (priority 2019, published 2022)
